Measured values taken from PMC3643599.

Experiments:
[1] = molecular target: GST-TDP (101-261) (human, UniProt Q13148 101-261); test: CD titration
[2] = molecular target: His-TDP (101-261) (human, UniProt Q13148 101-261); test: lysine acetylation footprinting MS
Chain of His-TDP (101-261) (Q13148 101-261): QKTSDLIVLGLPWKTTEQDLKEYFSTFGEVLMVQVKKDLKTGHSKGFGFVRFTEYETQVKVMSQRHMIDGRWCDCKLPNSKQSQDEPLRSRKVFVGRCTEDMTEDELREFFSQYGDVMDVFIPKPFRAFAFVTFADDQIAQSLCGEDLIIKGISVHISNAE

Chain of GST-TDP (101-261) (Q13148 101-261): as above

## UGUGUGUGUGUG (ssRNA) [(UG)6]
[1]
  binding result: binds
[2]
  binding result: binds
